In patent US12144864B2, “Tubulysins and protein-tubulysin conjugates” (Regeneron Pharmaceuticals, Inc., priority 2018, dated 2024):

B1: anti-STEAP2-LP5 (antibody, V domains shown)
VH: QVQLVESGGGVVQPGRSLRLSCVASGFTISSYGMNWVRQAPGKGLEWVAVISYDGGNKYSVDSVKGRFTISRDNSKNTLYLQMNSLRAEDSAVYYCARGRYFDLWGRGTLVTVSS
VL: DIQMTQSPSTLSASVGDRVTITCRASQSISSWLAWYQQKPGRAPNLLISKASSLKSGVPSRFSGSGSGTEFTLTVSSLQPDDFATYYCQQYYSYSYTFGQGTKLEIK
modifications: linker-payload LP5 (DIBAC-suc-PEG4-VA, payload IVd) conjugated; site and DAR of this conjugate not printed (the site-specific procedure uses N297Q, EU numbering, with azido-PEG3-amine on glutamines)
B2: Anti-PRLR-LP3 (conjugate)
VH: QVQLVESGGGVVQPGRSLRLSCGASGFTFRNYGMQWVRQGPGKGLEWVTLISFDGNDKYYADSVKGRFTISRDNSKNTLFLQMNSLRTEDTAVYYCARGGDFDYWGQGTLVTVSS
VL: DIQMTQSPSSLSASVGDRVTITCRASQDIRKDLGWYQQKPGKAPKRLIYAASSLHSGVPSRFSGSGSGTEFTLTISSLQPEDFATYYCLQHNSYPMYTFGQGTKLEIK
modifications: non-natural residues
B3: Anti-PRLR-LP4 (conjugate)
VH: B2 VH
VL: B2 VL
modifications: non-natural residues

Key:
[1] = biological target: T1, STEAP2 endogenously expressed on C4-2 prostate cancer cells (human, UniProt Q8NFT2 1-490); test: cell-based or functional assay
T1 sequence (looked up): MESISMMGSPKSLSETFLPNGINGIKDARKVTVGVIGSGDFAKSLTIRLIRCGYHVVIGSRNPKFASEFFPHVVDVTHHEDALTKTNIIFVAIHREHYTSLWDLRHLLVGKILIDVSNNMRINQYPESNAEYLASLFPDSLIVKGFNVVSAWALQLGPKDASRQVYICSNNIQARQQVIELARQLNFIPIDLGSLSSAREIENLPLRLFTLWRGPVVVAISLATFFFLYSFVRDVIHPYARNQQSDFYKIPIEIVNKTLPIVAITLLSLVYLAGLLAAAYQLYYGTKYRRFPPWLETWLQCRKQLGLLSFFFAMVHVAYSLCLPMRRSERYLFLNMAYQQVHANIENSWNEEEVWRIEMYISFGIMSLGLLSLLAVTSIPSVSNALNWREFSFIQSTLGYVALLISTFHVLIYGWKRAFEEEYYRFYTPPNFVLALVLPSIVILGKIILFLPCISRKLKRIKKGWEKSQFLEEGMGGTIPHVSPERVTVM

C4-2 cells = test: Cytotoxicity of anti-STEAP2 ADCs, payloads and reference compounds in C4-2 cells; type: cell-based, human; details: at maximum concentration tested
Procedure: (§1) To test the ability of the disclosed tubulysin payloads to kill human cell lines, an in vitro cytotoxicity assay was performed. In vitro cytotoxicity of the disclosed payloads, as well as reference compounds, were evaluated using the CellTiter-Glo Assay Kit (Promega, Cat #G7573), in which the quantity of ATP present is used to determine the number of viable cells in culture. For the assay, C4-2, HEK293, or T47D cells were seeded at 4000 cells/well on Nunclon white 96-well plates in complete growth medium (DME high glucose:Ham's F12 at 4:1, 10% FBS, 100 units/ml Penicillin, 100 ug/ml streptomycin, 53 ug/ml glutatmine, 10 ug/ml insulin, 220 ng/ml biotin, 12.5 pg/ml T3, 12.5 ug/ml Adenine, 4 ug/ml transferrin for C42 cells; DME high glucose, 10% FBS, 100 units/ml Penicillin, 100 ug/ml streptomycin, 53 ug/ml glutatmine for HEK293; RPMI, 10% FBS, 100 units/ml Penicillin, 100 ug/ml streptomycin, 53 ug/ml glutatmine, 10 ug/ml insulin, 10 mM HEPEs, 200 nM Sodium Pyruvate for T47D cells) and grown overnight at 37° C. in 5% CO2. For cell viability curves, 1:3 serially diluted payloads were added to the cells at final concentrations ranging from 100 nM to […], including a no treatment control group, and were then incubated for 5 days. After the 5-day incubation, cells were incubated at room temperature with 100 μL of CellTiter-Glo reagents for 10 minutes. Relative luminescence units (RLU) were determined on a Victor plate reader (PerkinElmer). The IC50 values were determined from a four-parameter logistic equation over a 10-point response curve (GraphPad Prism). All IC50 values are expressed in molar (M) concentration. The percent cell killing (% kill) at the maximum concentration tested was estimated from the following formula (100−% viable cells). Averages±standard deviation (SD) are included where replicate experiments were performed.
To further test the ability of the disclosed tubulysin payloads, reference compounds, and antibody drug conjugates using these payloads, a cytotoxicity assay was performed using C4-2 cells as described in this example (see above). For these studies, anti-STEAP2 antibodies were conjugated to select tubulysins payloads, and the compounds were tested at concentrations starting at 100 nM with 3-fold serial dilution. All IC50 values are expressed in nM concentration and the percent cell killing at the maximum concentration tested was estimated from the following formula (100−% viable cells).

[2] = In vitro plasma stability of ADCs (DAR by LC-MS), mouse plasma; type: in vitro ADME; details: 37° C., 50 μg/mL, DAR at 0 hr 3.8 (LP3 ADC), 4.0 (LP4 ADC), acetyl-hydrolyzed species counted as loss of drug
Procedure: (§2) To determine the plasma stability of representative ADCs containing the tubulysin payloads, ADCs were incubated in vitro with plasma from different species, and the DAR was evaluated after incubation at physiological temperature (37° C.) for 3 days.
(§3) For the assay, each ADC sample (anti-PRLR antibody-LP3 or anti-PRLR antibody-LP4) in PBS buffer was added to fresh pooled male mouse, cynomologus monkey, rat, or human plasma, separately, at a final concentration of 50 μg/mL in a 96-well plate, and subsequently incubated at 37° C. for 72 hours. After incubation, each sample (100 μL final volume) was individually frozen at −80° C. until analysis.
(§4) Affinity capture of the ADCs from the plasma samples was carried out on a KingFisher 96 magnetic particle processor (Thermo Electron). First, biotinylated extracellular domain of human PRLR expressed with a myc-myc hexahistidine tag (hPRLR ecto-MMH; SEQ ID NO: 17;100 μg/mL) was immobilized on streptavidin paramagnetic beads (In vitrogen, Cat #60210). Each plasma sample containing tubulysin ADCs (100 μL) was mixed at 600 rpm with 100 μL of the beads (the commercial beads come in volume) at room temperature for 2 hours in a 96-well plate. The beads were then washed three times with 600 μL of HBS-EP (GE healthcare, Cat #BR100188), once with 600 μL of H2O, and then once with 600 μL of 10% acetonitrile in water. […]

[3] = In vitro plasma stability of ADCs (DAR by LC-MS), cynomolgus monkey plasma; type: in vitro ADME; details: 37° C., 50 μg/mL, DAR at 0 hr 3.8 (LP3 ADC), 4.0 (LP4 ADC), acetyl-hydrolyzed species counted as loss of drug
Procedure: as §2, §3, §4

[4] = In vitro plasma stability of ADCs (DAR by LC-MS), rat plasma; type: in vitro ADME; details: 37° C., 50 μg/mL, DAR at 0 hr 3.8 (LP3 ADC), 4.0 (LP4 ADC), acetyl-hydrolyzed species counted as loss of drug
Procedure: as §2, §3, §4

[5] = In vitro plasma stability of ADCs (DAR by LC-MS), human plasma; type: in vitro ADME; details: 37° C., 50 μg/mL, DAR at 0 hr 3.8 (LP3 ADC), 4.0 (LP4 ADC), acetyl-hydrolyzed species counted as loss of drug
Procedure: as §2, §3, §4

HCT15/PRLR cells = test: Cytotoxicity of anti-PRLR tubulysin ADCs and payloads in HCT15/PRLR cells with or without Verapamil; type: cell-based, human; details: at maximum concentration tested; for % kill on HCT15/PRLR w/ Verapamil: with Verapamil; for % kill on HCT15/PRLR w/o Verapamil: without Verapamil
Procedure: as §1
Bioassays were developed to assess the efficacy of an anti-PRLR antibody conjugated with the disclosed tubulysin payloads and reference payloads. It was developed to assess the activity of tubulysin payloads after internalization of an anti-PRLR-tubulysin ADC into cells, release of the payload, and subsequent cytotoxicity. For this assay, a HCT15 line was engineered to express human full length PRLR (accession #NP_000940.1). The resulting stable cell line is referred to herein as HCT15/PRLR. In vitro cytotoxicity of the disclosed payloads, reference compounds, and tested ADCs were evaluated similarly as described in this example using HCT15/PRLR cells with or without […] of Verapamil diluted in normal culture medium. The compounds were tested at concentrations starting at 100 nM with 3-fold serial dilution. All IC50 values are expressed in nM concentration and the percent cell killing (% kill) at the maximum concentration tested was estimated from the following formula (100−% viable cells).

Molecule	IC50, cytotoxicity in the C4-2 cell based assay (CellTiter-Glo) [1] [nM]	% kill (C4-2 cells) [%]	DAR after 72 hours of incubation [2]	DAR after 72 hours of incubation [3]	DAR after 72 hours of incubation [4]	DAR after 72 hours of incubation [5]	% kill on HCT15/PRLR w/ Verapamil (HCT15/PRLR cells) [%]	% kill on HCT15/PRLR w/o Verapamil (HCT15/PRLR cells) [%]
B1	0.28	96						
B2			2.7	2.7	2.7	3.0	91	90
B3			2.7	2.7	2.6	3.0	91	65
